Data: IntAct's records for PubMed 12718882

B1: Splicing factor U2AF 65 kDa subunit (Homo sapiens), P26368 (parent)
chain: MSDFDEFERQLNENKQERDKENRHRKRSHSRSRSRDRKRRSRSRDRRNRDQRSASRDRRRRSKPLTRGAKEEHGGLIRSPRHEKKKKVRKYWDVPPPGFEHITPMQYKAMQAAGQIPATALLPTMTPDGLAVTPTPVPVVGSQMTRQARRLYVGNIPFGITEEAMMDFFNAQMRLGGLTQAPGNPVLAVQINQDKNFAFLEFRSVDETTQAMAFDGIIFQGQSLKIRRPHDYQPLPGMSENPSVYVPGVVSTVVPDSAHKLFIGGLPNYLNDDQVKELLTSFGPLKAFNLVKDSATGLSKGYAFCEYVDINVTDQAIAGLNGMQLGDKKLLVQRASVGAKNATLVSPPSTINQTPVTLQVPGLMSSQVQMGGHPTEVLCLMNMVLPEELLDDEEYEEIVEDVRDECSKYGLVKSIEIPRPVDGVEVPGCGKIFVEFTSVFDCQKAMQGLTGRKFANRVVVTKYCDPDSYHRRDFW
partner: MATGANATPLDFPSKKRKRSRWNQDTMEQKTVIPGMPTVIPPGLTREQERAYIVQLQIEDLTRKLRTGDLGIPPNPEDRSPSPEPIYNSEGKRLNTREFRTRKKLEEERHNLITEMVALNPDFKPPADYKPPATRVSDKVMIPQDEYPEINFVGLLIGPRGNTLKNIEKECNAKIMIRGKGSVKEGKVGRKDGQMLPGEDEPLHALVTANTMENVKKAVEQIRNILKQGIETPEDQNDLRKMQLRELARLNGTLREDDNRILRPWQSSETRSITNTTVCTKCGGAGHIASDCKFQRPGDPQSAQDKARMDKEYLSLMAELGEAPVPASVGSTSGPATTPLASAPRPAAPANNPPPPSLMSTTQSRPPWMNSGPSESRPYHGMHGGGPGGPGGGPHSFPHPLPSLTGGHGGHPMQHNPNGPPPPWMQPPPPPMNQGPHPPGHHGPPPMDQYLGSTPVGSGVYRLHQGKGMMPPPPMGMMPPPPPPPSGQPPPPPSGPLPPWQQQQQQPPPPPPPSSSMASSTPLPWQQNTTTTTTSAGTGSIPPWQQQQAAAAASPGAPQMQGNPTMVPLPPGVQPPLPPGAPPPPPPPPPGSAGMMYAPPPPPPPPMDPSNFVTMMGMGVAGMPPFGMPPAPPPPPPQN
B2: Splicing factor 1 (Homo sapiens), Q15637 (parent)
chain: B1 partner

Variants of: B1
Settings: with sf01_human SF1, Q15637

Which “effect of a mutation on the interaction” value does the source give for E387R;E388R here?
Its value is “disrupting interaction”.

E387G;E388A was tested. Which “effect of a mutation on the interaction” value did it give?
The value was “with no effect”.

How did the “effect of a mutation on the interaction” value turn out when D391A;D392A;E393A;E394A was run?
The value was “decreasing interaction”.

For E396G;E397A, which “effect of a mutation on the interaction” value is on record?
The value was “disrupting interaction”.

For E396A;E397A, which “effect of a mutation on the interaction” value is on record?
The value was “with no effect”.

For D391R;D392R;E393K;E394K, which “effect of a mutation on the interaction” value is on record?
Its value is “disrupting interaction”.

With E396K;E397K as the variant, how does the “effect of a mutation on the interaction” value read?
The value was “disrupting interaction”.

F454A was tested. Which “effect of a mutation on the interaction” value did it give?
Its value is “decreasing interaction”.

For F454Y, which “effect of a mutation on the interaction” value is on record?
Its value is “decreasing interaction”.

Variants of: B2
Settings: with U2AF2, P26368

Which “effect of a mutation on the interaction” value does the source give for K16E;R17D;K18E here?
Its value is “disrupting interaction”.

For N23A, which “effect of a mutation on the interaction” value is on record?
The value was “with no effect”.

How did the “effect of a mutation on the interaction” value turn out when K16A;R17A;K18A was run?
Its value is “with no effect”.

Which “effect of a mutation on the interaction” value does the source give for W22F here?
Its value is “with no effect”.

For W22A, which “effect of a mutation on the interaction” value is on record?
Its value is “disrupting interaction”.

R17E was tested. Which “effect of a mutation on the interaction” value did it give?
Its value is “with no effect”.

How did the “effect of a mutation on the interaction” value turn out when K15E was run?
The value was “decreasing interaction”.

Which “effect of a mutation on the interaction” value does the source give for K15E;K16E;R17D here?
Its value is “disrupting interaction”.

Which “effect of a mutation on the interaction” value does the source give for R19E here?
The value was “with no effect”.

Which “effect of a mutation on the interaction” value does the source give for R21D here?
Its value is “disrupting interaction”.

Which “effect of a mutation on the interaction” value does the source give for R21K here?
The value was “with no effect”.

For Q24A, which “effect of a mutation on the interaction” value is on record?
The value was “with no effect”.
